Test results: patent US12139520B2 (priority 2020, dated 2024)
Bridge positions count the residues as written; N and C are the ends. Square brackets hold non-standard residues; d marks the D form. Ends that are not written are not given here. Hyp = O=C(O)[C@@H]1C[C@@H](O)CN1; Cit = NC(=O)NCCC[C@H](N)C(=O)O

T1: hAMY3R (human, UniProt P30988)
T1 sequence 1: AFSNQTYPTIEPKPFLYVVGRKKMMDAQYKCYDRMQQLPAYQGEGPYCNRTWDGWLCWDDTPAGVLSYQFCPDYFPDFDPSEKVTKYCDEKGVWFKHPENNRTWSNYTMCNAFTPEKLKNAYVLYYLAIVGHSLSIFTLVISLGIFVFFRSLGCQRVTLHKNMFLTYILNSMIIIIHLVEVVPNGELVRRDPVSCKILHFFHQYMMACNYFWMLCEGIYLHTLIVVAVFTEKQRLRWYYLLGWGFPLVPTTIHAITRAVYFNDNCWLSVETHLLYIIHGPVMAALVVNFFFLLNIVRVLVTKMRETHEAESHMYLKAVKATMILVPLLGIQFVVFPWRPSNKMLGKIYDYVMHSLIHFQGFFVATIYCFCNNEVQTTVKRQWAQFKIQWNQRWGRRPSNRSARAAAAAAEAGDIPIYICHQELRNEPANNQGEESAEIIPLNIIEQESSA
T1 sequence 2: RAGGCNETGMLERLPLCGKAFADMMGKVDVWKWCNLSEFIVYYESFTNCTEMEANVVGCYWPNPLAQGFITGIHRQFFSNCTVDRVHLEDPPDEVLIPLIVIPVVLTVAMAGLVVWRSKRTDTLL


Experiments:
hAMY3R = molecular target: T1, hAMY3R; assay: cell-based or functional assay
hAM1R = hAM1R (human, UniProt Q16602); assay: cell-based or functional assay

| Binder | hAMY3R EC50 (cAMP) (hAMY3R) | hAM1R EC50 (cAMP) (hAM1R) |
| --- | --- | --- |
| KCNTATCTVQWLAHQIYQFTDKDKDNVPPTNVGSNG[Hyp]-NH2 (disulfide 2-7 (inferred); ends not checked) [SEQ ID NO: 318] | 0.009 nM | > 5000 nM |
| GCRFGTCTVQWLAHFLYQFTDKDKDNVAPRTNVGPQGY [SEQ ID NO: 326] | 0.053 nM | > 5000 nM |
| GCRFGTCTVQWLAHFLYQFTDKDKDNVAPRTNVGSNTY [SEQ ID NO: 327] | 0.09 nM | > 5000 nM |
| KCNTATCTVQWLAHQIYQFTDKDKDAVAPPTNVGSNG[Hyp]-NH2 (disulfide 2-7 (inferred); ends not checked) [SEQ ID NO: 324] | 0.028 nM | > 5000 nM |
| KCNAATCTVQWLAEQIYQFTDKDKDNVAPPTNVGSNG[Hyp]-NH2 (disulfide 2-7 (inferred); ends not checked) [SEQ ID NO: 333] | 0.236 nM | 107 nM |
| KCNTATCTVQWLAHQIYQFTDKDKDNAAPPTNVGSNG[Hyp]-NH2 (disulfide 2-7 (inferred); ends not checked) [SEQ ID NO: 315] | 0.012 nM | > 5000 nM |
| KCNTATCTVQWLAHQIYQFDKDKDNVAPPTNVGSNG[Hyp]-NH2 (disulfide 2-7 (inferred); ends not checked) [SEQ ID NO: 329] | 0.032 nM | > 5000 nM |
| KCNTATCTVQWLAHQIYQFTDKDKDNVAPATNVGSNG[Hyp]-NH2 (disulfide 2-7 (inferred); ends not checked) [SEQ ID NO: 316] | 0.012 nM | > 5000 nM |
| KCNTATCTVQWLAEQIYQFTDKDKDNVAPPYNEGSNG[Hyp]-NH2 (disulfide 2-7 (inferred); ends not checked) [SEQ ID NO: 321] | 0.317 nM | > 5000 nM |
| KCNTATCTVQWLAHQIYQFTDKDKDNVAPTNVGSNG[Hyp]-NH2 (disulfide 2-7 (inferred); ends not checked) [SEQ ID NO: 319] | 0.018 nM | > 5000 nM |
| RCQASTCTVA[Cit]LAEQIAQYTDKDKDQVAPPTEVGPNS[Hyp]-NH2 (disulfide 2-7 (inferred); ends not checked) [SEQ ID NO: 33] | 0.008 nM | > 5000 nM |
| KCNTATCTVQWLAHQIYQFTDKDKDNVAPRTEVGSNGY [SEQ ID NO: 334] | 0.013 nM | > 5000 nM |
| KCNTATCTVQRLAHQIYQFTDKDKDNVAPRTKVGSNGY [SEQ ID NO: 34] | 0.009 nM | 54.6 nM |
| GCRFGTCTVQWLAHQIYQFTDKDKDNVAPRTNIGPNG[Hyp]-NH2 (disulfide 2-7 (inferred); ends not checked) [SEQ ID NO: 331] | 0.006 nM | 3570 nM |
| KCNTATCTVQWLAHQIYQFTKDKDNVAPPTNVGSNG[Hyp]-NH2 (disulfide 2-7 (inferred); ends not checked) [SEQ ID NO: 317] | 0.004 nM | > 5000 nM |
| KCNTATCTVQWLAHQIYQFADKDKDNVAPPTNVGSNG[Hyp]-NH2 (disulfide 2-7 (inferred); ends not checked) [SEQ ID NO: 313] | 0.004 nM | > 5000 nM |
| KCNTATCTVQWLAHQIYQFTDKDKANVAPPTNVGSNG[Hyp]-NH2 (disulfide 2-7 (inferred); ends not checked) [SEQ ID NO: 314] | 0.008 nM | > 5000 nM |
| RCQTSTCTVARLAEQIAQYTDKDKDQVAPPTNVGSNS[Hyp]-NH2 (disulfide 2-7 (inferred); ends not checked) [SEQ ID NO: 32] | 0.008 nM | > 5000 nM |

Continued, values first:

| hAMY3R EC50 (cAMP) (hAMY3R) | hAM1R EC50 (cAMP) (hAM1R) | Binder |
| --- | --- | --- |
| 0.014 nM | > 5000 nM | GCRTGTCTVQWLAHQIYQFTDKDKDNVAPRTNVGPQG[Hyp]-NH2 (disulfide 2-7 (inferred); ends not checked) [SEQ ID NO: 323] |
| 0.007 nM | > 5000 nM | GCRTGTCTVQWLAHQIYQFTDKDKDNVAPRTNVGPNGY [SEQ ID NO: 332] |
| 0.015 nM | > 5000 nM | GCRTGTCTVQWLAHQIYQFTDKDKDNVAPRTNVGPQGY [SEQ ID NO: 335] |
| 0.025 nM | > 5000 nM | KCNTATCTVQWLAHQIYQFTDKDKDNVAAPTNVGSNG[Hyp]-NH2 (disulfide 2-7 (inferred); ends not checked) [SEQ ID NO: 325] |
| 0.01 nM | > 5000 nM | KCNTATCTVQWLAHQIYQFTDADKDNVAPPTNVGSNG[Hyp]-NH2 (disulfide 2-7 (inferred); ends not checked) [SEQ ID NO: 328] |
| 0.008 nM | > 5000 nM | KCNTATCTVQWLAHQIYQFTDKDKDNVAPPTNVGSNG[Hyp]-NH2 (disulfide 2-7 (inferred); ends not checked) [SEQ ID NO: 330] |
| 0.014 nM | 1390 nM | GCRFGTCTVQWLAHQIYQFTDKDKDNVAPRTKVGPQG[Hyp]-NH2 (disulfide 2-7 (inferred); ends not checked) [SEQ ID NO: 322] |
| 0.009 nM | > 5000 nM | KCNTATCTVQWLAHQIYQFTDKAKDNVAPPTNVGSNG[Hyp]-NH2 (disulfide 2-7 (inferred); ends not checked) [SEQ ID NO: 320] |
| 0.012 nM | > 5000 nM | KCNTATCTVQWLAHQIYQFTDKDKDNVAPRTKVGSNG[Hyp]-NH2 (disulfide 2-7 (inferred); ends not checked) [SEQ ID NO: 312] |
